Measured values reported in patent publication US20240272082A1 (ARIZONA BOARD OF REGENTS ON BEHALF OF ARIZONA STATE …, published 2024).
Values joined by “and” are separate entries in the source; they are usually repeats but may differ in a detail not shown here. Equal values may be shown once. No end group written: not given here.

Key:
[1] = biological target: T1, proprotein convertase subtilisin/kexin type 9 (PCSK9) (UniProt Q8NBP7 31-692, limits assumed); experiment: CSOD; comparison of KD values of Table 2
T1 construct: Analyte in solution in both CSOD and SPR; also called PCSK9 protein

[2] = biological target: T1, proprotein convertase subtilisin/kexin …; experiment: CSOD; phage immobilised on fiber probe, PCSK9 in solution, global first-order fit
Excerpt: The fiber probes were switched from a well containing a buffer to a well containing PCSK9 at 0 s for the measurement of the association process (downward facing arrow) and then switched back to the buffer well at the time indicated by the upward facing arrow for the measurement of the dissociation process.
The binding of different concentrations of PCSK9 proteins to the functionalized probes was studied in a 40-time diluted PBS buffer. For each measurement, a baseline was first established by dipping the functionalized fiber tip into a microplate well with a buffer; then, the fiber was switched to another well containing PCSK9 protein solution to measure the association curve. Finally, the fiber was moved back to the buffer well and the dissociation process was recorded. By fitting the kinetic curves at different concentrations globally with first order kinetics using Scrubber v.2.0c, the association rate constants (ka), dissociation rate constants (kd), and equilibrium constants (KD) for all samples are summarized in Table 2.

T1 sequence (Q8NBP7 31-692 limits assumed): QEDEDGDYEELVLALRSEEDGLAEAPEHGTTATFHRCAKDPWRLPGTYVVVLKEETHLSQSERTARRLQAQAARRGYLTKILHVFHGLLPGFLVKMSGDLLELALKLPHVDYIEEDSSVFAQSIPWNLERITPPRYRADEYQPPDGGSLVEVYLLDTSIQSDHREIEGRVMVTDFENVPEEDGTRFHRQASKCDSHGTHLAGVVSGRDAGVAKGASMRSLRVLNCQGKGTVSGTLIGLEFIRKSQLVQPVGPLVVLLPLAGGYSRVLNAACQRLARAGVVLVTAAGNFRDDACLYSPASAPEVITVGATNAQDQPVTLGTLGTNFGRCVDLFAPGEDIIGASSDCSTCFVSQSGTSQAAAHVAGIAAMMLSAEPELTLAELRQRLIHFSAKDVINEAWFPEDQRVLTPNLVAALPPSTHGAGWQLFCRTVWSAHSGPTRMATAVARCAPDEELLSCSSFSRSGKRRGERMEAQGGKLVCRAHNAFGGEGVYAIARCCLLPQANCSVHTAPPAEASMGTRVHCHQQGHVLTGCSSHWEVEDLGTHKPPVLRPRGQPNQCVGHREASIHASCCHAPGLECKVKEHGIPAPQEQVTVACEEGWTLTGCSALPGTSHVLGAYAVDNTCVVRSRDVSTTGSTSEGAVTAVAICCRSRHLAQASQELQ

B1: SG pep2-8-2478 (M13 phage-displayed peptide, fused to pVIII) (peptide)
peptide: SGTVFTSWEEYLDWV
modifications: not fully specified
notes: Samples A and B are identical replicates prepared separately; also called Sample 5A; Sample 5B; not shown: M13 major coat protein pVIII (display carrier) and any linker between peptide and pVIII
- fold affinity change against Sample #4 (no SG pep2-8-2478) [1]: ~2 fold
- Kd [2]: 370 nM and 380 nM
- koff [2]: 0.00154 s⁻¹ and 0.00119 s⁻¹
- kon [2]: 4200 M⁻¹ s⁻¹ and 3130 M⁻¹ s⁻¹
